Assay results as given in US20230391891A1 (SYNTHEKINE, published 2023).

T1: extracellular domain of hIL10Rb (human, UniProt Q08334 20-220)
T1 construct: also called hIL10Rb ECD; human IL10Rb
T1 sequence: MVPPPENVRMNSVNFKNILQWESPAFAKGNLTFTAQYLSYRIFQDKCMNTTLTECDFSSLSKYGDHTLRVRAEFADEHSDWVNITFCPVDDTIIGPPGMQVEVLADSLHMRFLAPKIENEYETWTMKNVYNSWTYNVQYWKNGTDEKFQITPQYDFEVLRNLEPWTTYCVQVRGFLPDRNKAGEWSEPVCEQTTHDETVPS

T2: extracellular domain of mIL10Rb (mouse, UniProt Q61190 20-220)
T2 construct: also called mIL10Rb ECD; murine IL10Rb
T2 sequence: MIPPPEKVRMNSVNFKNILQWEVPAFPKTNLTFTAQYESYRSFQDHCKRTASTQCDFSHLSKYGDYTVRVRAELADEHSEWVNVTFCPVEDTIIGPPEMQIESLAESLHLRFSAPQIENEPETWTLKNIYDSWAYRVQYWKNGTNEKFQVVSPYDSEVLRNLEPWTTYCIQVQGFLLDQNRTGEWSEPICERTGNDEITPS


Experiments:
[1] = biological target: T1, extracellular domain of hIL10Rb; assay: flow cytometry
[2] = biological target: T2, extracellular domain of mIL10Rb; assay: flow cytometry, cross-reactivity

Row | Binder | binding result [1] | binding result [2]
1 | hIL10Rb_VHH-2 (VHH, anti-hIL10Rb camel VHH) VHH: QVQLQESGGGSVQAGGSLRLSCAASGYTYSSYCMGWFRQAPGKEREGVAAIDSDGSTRYADSVKGRFTISKDNAKNTLYLQMNSLKPEDTAMYYCAAEPYCSGGYKRTMVAEFGYWGQGTQVTVSS | binds | –
2 | hIL10Rb_VHH-1 (VHH, anti-hIL10Rb camel VHH) VHH: QVQLQESGGGSVQAGGSLRLSCAASGYTYSSGCMGWFRQAPGKEREAVAAINSDGSTSYADSVKGRFTISKDNAKNTLYLQMNSLKPEDTAMYYCAAEPYCSGGYPRWSVAEFGYWGQGTQVTVSS | binds | –
3 | hIL10Rb_VHH-7 (VHH, anti-hIL10Rb camel VHH) VHH: QVQLQESGGGSVQAGGSLRLSCAASGYTYSSGCMGWFRQAPGKEREGVATINSDGSTNYADSVKGRFTISKDNAKNTLYLQMNSLKPEDTAMYYCAAEPYCSGGYPRWSVAEFGYWGQGTQVTVSS | binds | –
4 | hIL10Rb_VHH-8 (VHH, anti-hIL10Rb camel VHH) VHH: QVQLQESGGGSVQAGGSLRLSCAASGYSYSSYCMGWFRQAPGKEREGVAAIASDGSTSYADSVKGRFAISKDNAKNTLYLQMASLKPEDTAMYYCAAEPWCTGGYSRLTPAEYGYWGQGTQVTVSS | binds | –
5 | hIL10Rb_VHH-9 (VHH, anti-hIL10Rb camel VHH) VHH: QVQLQESGGGLVQPGGSLRLSCAASGYTYSSGCMGWFRQAPGKEREGVATINSDGSTNYADSVKGRFTISKDNAKNTLYLQMNSLKPEDTAMYYCAAEPYCSGGYPRWSVAEFGYWGQGTQVTVSS | binds | –
6 | hIL10Rb_VHH-11 (VHH, anti-hIL10Rb camel VHH) VHH: QVQLQESGGGSVQAGGSLRLSCAASGYTYSSYCMGWFRQAPGKGREGVAAIDSDGSTRYADSVKGRFTISKDNAKNTLYLQMNSLKPEDTAMYYCAAEPYCSGGYKRTMVAEFGYWGQGTQVTVSS | binds | –
7 | hIL10Rb_VHH-14 (VHH, anti-hIL10Rb camel VHH) VHH: QVQLQESGGGSVQAGGSLRLSCAASGYTYSSGCMGWFRQAPGKEREGVATINSDGSTNYADSVKGRFTISKDNAKNTLYLQMNSLKPEDTGMYYCAAEPYCSGGYPRWSVAEFGYWGQGTQVTVSS | binds | –
8 | hIL10Rb_VHH-18 (VHH, anti-hIL10Rb camel VHH) VHH: QVQLQESGGGSVQAGGSLRLSCAASGDTYSSYCMGWFRQAPGKEREGVAFIDSDGSTRYADSVEGRFTISKDNAKNTLYLQMNSLKPEDTAMYYCAAEPYCSGGYHRKEMAEFGYWGQGTQVTVSS | binds | –
9 | hIL10Rb_VHH-23 (VHH, anti-hIL10Rb camel VHH) VHH: QVQLQESGGGSVQAGGSLRLSCAASGYTYSSYCMGWFRQAPGKEREGVAAIDSDGSTRYADSVKGRFTISKDNAKKILYLQMNSLKVEDTAMYYCAAEPYCSGGYKRTMVAEFGFWGQGTQVTVSS | binds | –
10 | hIL10Rb_VHH-4 (VHH, anti-hIL10Rb camel VHH) VHH: QVQLQESGGGSIQAGGSLRLSCAASRYLYSIDYMAWFRQSPGKEREPVAVIYTASGATFYPDSVKGRFTISQDNAKMTVYLQMNSLKSEDTAMYYCAAVRKTDSYLFDAQSFTYWGQGTQVTVSS | binds | binds
11 | hIL10Rb_VHH-6 (VHH, anti-hIL10Rb camel VHH) VHH: QVQLQESGGGSIQAGGSLTLSCAASRDLYSTNYVAWFRQSPGKEREAVAVIYTASGATLYSDSVKGRFTISQDNAKMTVYLQMNSLKSEDTAMYYCAAVRKTGHYLFDAQSFTYWGQGTQVTVSS | binds | binds
12 | hIL10Rb_VHH-12 (VHH, anti-hIL10Rb camel VHH) VHH: QVQLQESGGGSVQAGGSLRLSCAASGYTYSSYCMGWFRQAPGKEREGVAHIDSDGSTSYADSVKGRFTISKDNAKNTLYLQMNSLKPEDTAMYYCAADPIPGPGYCDGGPNKYWGQGTQVTVSS | binds | binds
13 | hIL10Rb_VHH-5 (VHH, anti-hIL10Rb camel VHH) VHH: QVQLQESGGGLVQPGGSLRLSCAASGYTYSSYCMGWFRQAPGKEREGVAHIDSDGSTTYADSVKGRFTISKDNAKNTLYLQMNSLKPEDTAMYYCAADPIPGPGYCDGGPNKYWGQGTQVTVSS | binds | –
14 | hIL10Rb_VHH-10 (VHH, anti-hIL10Rb camel VHH) VHH: QVQLQESGGGLVQPGGSLRLSCAASGYTYSSYCMGWFRQAPGKEREGVAHIDSDGSTTYADSVKGRFAISKDNAKNTLYLQMNSLKPEDTAMYYCAADPIPGPGYCDGGPNKYWGQGTQVTVSS | binds | binds
15 | hIL10Rb_VHH-13 (VHH, anti-hIL10Rb camel VHH) VHH: QVQLQESGGGSVQAGGSLRLSCAASGYTYSSYCMGWFRQAPGKEREGVAHIDSDGSTSYADSVKGRFTISKDNAKNTLYLQMNSLKPEDTAMYYCAADPIPGPGYCDGGPNNYWGQGTQVTVSS | binds | binds
16 | hIL10Rb_VHH-19 (VHH, anti-hIL10Rb camel VHH) VHH: QVQLQESGGGSVQAGGSLRLSCAASGYTYSSYCMGWFRQAPGKEREGVAHIDSDGSTSYADSVKGRFTISKDNAKNTLYLQMNSLKPEDTAMYYCAADPIPGPGYCDGGPNKYRGQGTQVTVSS | binds | binds
17 | hIL10Rb_VHH-20 (VHH, anti-hIL10Rb camel VHH) VHH: QVQLQESGGGSVQAGGSLRLSCAASGYTYSSYCMGWFRQAPGKEREGVAHIDSDGSTTYADSVKGRFAISKDNAKNTLYLQMNSLKPEDTAMYYCAADPIPGPGYCDGGPNKYWGQGTQVTVSS | binds | binds
18 | hIL10Rb_VHH-22 (VHH, anti-hIL10Rb camel VHH) VHH: QVQLQESGGGSVQAGGSLRLSCAASGYTDSRYCMGWFRKAPGKEREGVAHIDSDGSTSYADSVKGRFTISKDNAKNTLYLQMNSLKPEDTAMYYCAADPIPGPGYCDGGPNKYWGQGTQVTVSS | binds | binds
19 | hIL10Rb_VHH-24 (VHH, anti-hIL10Rb camel VHH) VHH: QVQLQESGGGSVQAGGSLKLSCAASGYTYSSYCMGWFRQAPGKEREGVAHIDSDGSTTYADSVKGRFTISKDNAKNTLYLQMNSLKPEDTAMYYCAADPIPGPGYCDGGPNNYWGQGTQVTVSS | binds | binds
20 | hIL10Rb_VHH-25 (VHH, anti-hIL10Rb camel VHH) VHH: QVQLQESGGGSVQAGGSLRLSCAASGYTYSSYCMGWFRQAPGKEREGIAHIDSDGSTTYADSVKGRFTISKDNAKNTLYLQMNSLKPEDTAMYYCAADPIPGPGYCDGGPNNYWGQGTQVTVSS | binds | binds
21 | hIL10Rb_VHH-15 (VHH, anti-hIL10Rb camel VHH) VHH: QVQLQESGGGSVQAGGSLRLSCTVSRYTASVNYMGWFRQAPGKEREGVATIFTGAGTTYYANSVKGRFTISRDNAKNTAYLQMNSLKPEDTAIYYCAVDFRGGLLYRPAYEYTYRGQGTQVTVSS | binds | –
22 | hIL10Rb_VHH-17 (VHH, anti-hIL10Rb camel VHH) VHH: QVQLQESGGGSVQAGGSLRLSCTVSRYTASVNYMGWFRQAPGKEREGVATIFTGAGTTYYANSVKGRFTISRDNAKNTAYLQMNSLKPEDTAMYYCAVDFRGGLLYRPAYEYTYRGQGTQVTVSS | binds | –
23 | hIL10Rb_VHH-16 (VHH, anti-hIL10Rb camel VHH) VHH: QVQLQESGGGSVEAGGSLRLSCAASGYTHSSYCMGWFRQAPGKEREGVAAIDVDGSTTYADSVKGRFTISKDNAKNTLYLQMNSLKPEDTGMYYCAAEFADCSSNYFLPPGAVRYWGQGTQVTVSS | binds | binds
24 | hIL10Rb_VHH-3 (VHH, anti-hIL10Rb camel VHH) VHH: QVQLQESGGGSVQAGGSLRLSCAASRYTYNSYCMGWFRQAPGKEREGVATIDSDGMTRYADSVKGRFTISKDNAKNTLYLQMNSLKPEDTAMYYCAADADCTIAAMTTNPLGQGTQVTVSS | binds | binds
25 | hIL10Rb_VHH-26 (VHH, anti-hIL10Rb camel VHH) VHH: QVQLQESGGGSVQAGGSLRLSCAASGYSYSSYCMGWFRQAPGKEREGVATIDSDGMTRYADSVKGRFTISKDNAKNTLYLQMNSLKPEDTAMYYCAAPLYDCDSGAVGRNPPYWGQGTQVTVSS | binds | binds
26 | hIL10Rb_VHH-27 (VHH, anti-hIL10Rb camel VHH) VHH: QVQLQESGGGSVQTGGSLRLSCAASGYTYLRGCMGWFRQAPGKEREGVAVMDVVGDRRSYIDSVKGRFTISRDNAANSVYLQMDNLKPEDTAMYYCTAGPNCVGWRSGLDYWGQGTQVTVSS | binds | –
